Test [1] addresses mGlu5-Δ856 (construct for large-scale purification, devoid of eGFP) (human) (UniProt P41594).
Test [2] has the same target. The test is described as follows: SEC; purified receptor on Superose 6 increase in MNG3/CHS. A general note: Size exclusion chromatography separates by hydrodynamic size, large species first.

Chain of Gαqβ1γ2 (P50148 whole entry): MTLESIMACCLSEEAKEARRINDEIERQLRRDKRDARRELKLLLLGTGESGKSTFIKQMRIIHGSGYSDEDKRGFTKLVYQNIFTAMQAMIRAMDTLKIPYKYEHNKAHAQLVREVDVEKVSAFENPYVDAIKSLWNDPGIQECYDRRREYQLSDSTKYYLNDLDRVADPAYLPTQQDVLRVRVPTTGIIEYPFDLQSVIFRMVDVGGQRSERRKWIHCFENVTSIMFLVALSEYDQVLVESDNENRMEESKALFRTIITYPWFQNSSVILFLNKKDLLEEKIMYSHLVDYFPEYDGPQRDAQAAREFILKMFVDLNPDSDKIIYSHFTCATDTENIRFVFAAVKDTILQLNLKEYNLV
Chain of Gαqβ1γ2 (P62873 whole entry): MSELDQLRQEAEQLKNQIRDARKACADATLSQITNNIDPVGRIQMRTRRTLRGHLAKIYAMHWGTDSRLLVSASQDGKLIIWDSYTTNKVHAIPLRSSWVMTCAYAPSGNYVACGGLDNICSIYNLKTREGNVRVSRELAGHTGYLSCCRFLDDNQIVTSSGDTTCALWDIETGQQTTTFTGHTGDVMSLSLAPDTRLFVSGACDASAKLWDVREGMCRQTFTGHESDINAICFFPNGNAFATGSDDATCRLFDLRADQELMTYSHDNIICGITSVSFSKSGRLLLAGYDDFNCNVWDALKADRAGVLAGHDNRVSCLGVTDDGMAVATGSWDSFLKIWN
Chain of Gαqβ1γ2 (P59768 whole entry): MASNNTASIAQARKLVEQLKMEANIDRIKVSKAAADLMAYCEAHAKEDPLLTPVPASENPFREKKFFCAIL

In test [1], “Gαqβ1γ2 (from UniProt P50148 1-359; P62873 1-340; P59768 1-71) (complex)” had a Bodipy-FL GTPγS fluorescence, purified receptor in detergent, glutamate and VU0424465 together: increase of the maximum response of 30%.
As a reminder, the stoichiometry N is a count of units in the complex or per binding partner. Turning to “mGlu5-Δ856 (construct for large-scale purification, devoid of eGFP) (from UniProt P41594-2 21-856) (receptor)”, the stoichiometry N in test [2] was 2.

The record behind these values is PMC5849714, “Direct coupling of detergent purified human mGlu5 receptor to the heterotrimeric G proteins Gq and Gs” (Scientific Reports, 2018).
